Like-named read-outs stand apart in the source and are kept apart here.
B1: natural Phl p 5b, purified by affinity chromatography (protein)
chain: ADAGYAPATPAAAGAAAGKATTEEQKLIEDINVGFKAAVAAAASVPAADKFKTFEAAFTSSSKAAAAKAPGLVPKLDAAYSVAYKAAVGATPEAKFDSFVASLTEALRVIAGALEVHAVKPVTEEPGMAKIPAGELQIIDKIDAAFKVAATAAATAPADDKFTVFEAAFNKAIKESTGGAYDTYKCIPSLEAAVKQAYAATVAAAPQVKYAVFEAALTKAITAMSEVQKVSQPATGAATVAAGAATTAAGAASGAATVAAGGYKV
B2: r Phl p 5b: recombinant wild type Phl p 5b, 265 amino acids, SEQ ID NO 87 (protein)
chain: B1 chain
B3: n Phl p 5b: purified natural allergen Phl p 5b of timothy grass (Phleum pratense), reference of the EAST inhibition (protein)
chain: B1 chain

How the values were obtained:
[1] = molecular target: IgE antibodies of the individual allergic patient serum II/3; assay: EAST inhibition, individual serum II/3
[2] = molecular target: IgE antibodies of the individual allergic patient serum II/17; assay: EAST inhibition, individual serum II/17
[3] = molecular target: IgE antibodies of the individual allergic patient serum II/12; assay: EAST inhibition, individual serum II/12
[4] = molecular target: IgE antibodies of the allergic patient serum pool Bor 18/100 (20 donors); assay: EAST inhibition, serum pool Bor 18/100
[5] = molecular target: IgE antibodies of the allergic patient serum pool We 6/97; assay: EAST inhibition, serum pool We 6/97
[6] = tested on: Phl p 5b-reactive T cell lines (TCLs) from allergic patients; assay: Proliferative reaction of Phl p 5b-reactive oligoclonal T cell lines ([3H]-thymidine incorporation); assay type: cell-based, human; settings: secondary activator 0.3 μM
Method: In the second phase, oligoclonal T cell lines, which have been established by repeated stimulation with the relevant allergens, are employed for the testing. Once again, only those modified recombinant allergens which at least give rise to a stimulation index (SI) of 50% of the SI of the wild type are taken into consideration.
(§1) 40 ml of heparinized blood were obtained from each patient. Peripheral mononuclear cells (PBMC) were then isolated from this blood sample by means of the customary method using density gradient centrifugation. Analogous cell isolations were carried out at a later stage when it was necessary to obtain irradiated autologous antigen-presenting cells (APC) for characterizing the TCL and TCC further. After the PBMC had been counted, TCL which reacted to group 5 allergens in vitro were established as follows and as has already been described in detail elsewhere (Lit. 1): in each well of 24-well microculture plates, from 1.5 to 2.0×10^6 PBMC in 1 ml of culture medium (UltraCulture) were stimulated for 7 days in the added presence of natural Phl p5 allergens (in each case 10 μg/well) which had been purified by immunoaffinity chromatography. A total of from 8 to 10 of these cultures were set up. The isolation of Phl p5 by means of immunoaffinity chromatography has been described in detail (Lit. 2). At the end of the 7 days of culture, IL-2 (from 10 to 20 IU/well) was added to the cell cultures for a further 5 to 7 days. All the individual cultures were then pooled and the T cell blasts were enriched by means of density gradient centrifugation; the TCL which were obtained were then tested in a specific lymphocyte proliferation test (see Lit. 1 as well). For this, 2×10^4/ml TCL blasts were in each case cultured with 5×10^4/ml irradiated autologous APCs in triplicate samples in 96-well microculture plates. 10-20 μg of Phl p5 allergen were added as the specific antigen stimulus. After 56 hours of incubation, ^3H-labelled thymidine (1 μCi/well) was pipetted into the microcultures. After a further 16 hours, the radioactivity which had been incorporated into the proliferating T cell blasts was measured in a beta counter (Matrix 96). The results were calculated, as the arithmetic mean of the multiple samples, in counts per minute (cpm). The criterion for the quality of the TCL was the stimulation index, which was obtained by relating the cpm values with Phl p5 addition to those without Phl p5 addition.
The oligoclonal T cell lines (TCLs) from 8 patients who were allergic to grass pollen (see Ex. 1) were established by repeated activation with natural Ph1 p 5b (a+b) or recombinant rPh1 p 5b or 5a+5b.
The proliferative reaction of these TCLs was tested using the rPh1 p 5b mutants (FIG. 10).

[7] = tested on: Phl p 5b-reactive T cell clones (TCCs) from allergic patients; assay: Proliferative reaction of Phl p 5b-reactive T cell clones ([3H]-thymidine incorporation); assay type: cell-based, human; settings: final concentration 0.3 μM
Method: as §1
After a TCL had been cloned (see below), the specificity of the isolated TCCs were determined as has just been described. Stimulation indices of at least 5 were rated as being positive for the TCCs. The determination of T cell epitopes for defining the T cell-reactive regions on group 5 allergens was also carried out using specific proliferation tests, with 1-2 μg of synthesized dodecapeptide/ml being used for this purpose in each case (see below).
The reactivity of the recombinant Ph1 p 5b mutants was tested on established T cell clones (TCCs) of known specificity. The TCCs derive from patients who are allergic to grass pollen (see Ex. 1) and are directed against the T cell-reactive regions A (FIG. 7), B (FIG. 8) and C (FIG. 9). The T cell reactivity was measured by stimulating the clones to proliferate.

[8] = tested on: IgE antibodies of allergic patients; assay: EAST inhibition test (IgE reactivity / allergenicity); assay type: binding, human; settings: for IC50: read-out: Inhibition value 50% (concentration of the inhibitor at 50% inhibition); for Allergenic potency (Prel) 25%: relative to native Phl p 5b at 25% inhibition; for Allergenic potency (Prel) 50%: relative to native Phl p 5b at 50% inhibition
Method: The effects of the induced mutations on the allergenicity, i.e. the ability to bind to the IgE antibodies of allergic patients, of the modified recombinant allergens is determined qualitatively and quantitatively by means of the EAST inhibition test. […] The extent of the immunochemical relatedness (cross reactivity) can also be quantified. This EAST inhibition test only takes the reaction with IgE antibodies into account.
The binding of the allergens by the IgE antibodies is the basic prerequisite for the allergen-specific activation of the effector cells (mast cells, basophils, inter alia) in type I allergy. The allergen-specific inhibition of the enzyme/allergen sorbent test (EAST) is the best means for qualitatively and quantitatively recording the binding of the allergens to IgE anti-bodies. The EAST inhibition test is carried out as follows. Microtitre plates are coated with allergen (natural or recombinant Ph1 p 5 or Ph1 p 5b) (1 μg/ml). After the unbound allergen molecules have been removed by washing, non-specific plastic binding sites are blocked with bovine serum albumin (0.5%). […] from allergic patients, as a representative pool of 10-30 donors or as an individual serum, is incubated, in a suitable dilution, with the allergen-coated microtritre plates. The bound allergen-specific IgE antibodies are quantified using enzyme-coupled anti-IgE antibodies (e.g. alk. phosphatase-a-IgE antibodies). This binding is inhibited by soluble allergen or the substance to be tested (allergen mutants) in dependence on the concentration. The inhibition curve obtained with the purified natural allergen Ph1 p 5b is used as the reference.

[9] = allergic patient serum pool Bor 18/100
[10] = allergic patient serum pool We 6/97
[11] = individual allergic patient serum II/3
[12] = individual allergic patient serum II/12
[13] = individual allergic patient serum II/17

Row | Molecule | Inhibition value 25% (concentration of the inhibitor at 25% inhibition) [8, 9] | IC50 [8, 9] | Inhibition value 25% (concentration of the inhibitor at 25% inhibition) [8, 10] | IC50 [8, 10] | Inhibition value 25% (concentration of the inhibitor at 25% inhibition) [8, 11] | IC50 [8, 11] | Inhibition value 25% (concentration of the inhibitor at 25% inhibition) [8, 12] | IC50 [8, 12] | Inhibition value 25% (concentration of the inhibitor at 25% inhibition) [8, 13] | IC50 [8, 13] | Allergenic potency (Prel) 25% ([8]; individual serum II/3) | Allergenic potency (Prel) 25% ([8]; individual serum II/12) | Allergenic potency (Prel) 25% ([8]; individual serum II/17) | Allergenic potency (Prel) 25% ([8]; serum pool Bor 18/100) | Allergenic potency (Prel) 25% ([8]; serum pool We 6/97) | Allergenic potency (Prel) 50% ([8]; individual serum II/3) | Allergenic potency (Prel) 50% ([8]; individual serum II/12) | Allergenic potency (Prel) 50% ([8]; individual serum II/17) | Allergenic potency (Prel) 50% ([8]; serum pool Bor 18/100) | Allergenic potency (Prel) 50% ([8]; serum pool We 6/97) | other results
1 | B1 |  |  |  |  |  |  |  |  |  |  |  |  |  |  |  |  |  |  |  |  | IC50 [1]: 5.9 nM; allergenic potency (Prel) at 25% inhibition (relative to native Phl p 5b) [1]: 1; allergenic potency (Prel) at 50% inhibition (relative to native Phl p 5b) [1]: 1; inhibition value (inhibitor concentration at 25% inhibition) [1]: 5.1e-10 mol/L; IC50 [2]: 2.6 nM; allergenic potency (Prel) at 25% inhibition (relative to native Phl p 5b) [2]: 1; allergenic potency (Prel) at 50% inhibition (relative to native Phl p 5b) [2]: 1; inhibition value (inhibitor concentration at 25% inhibition) [2]: 2.2e-10 mol/L; IC50 [3]: 6.8 nM; allergenic potency (Prel) at 25% inhibition (relative to native Phl p 5b) [3]: 1; allergenic potency (Prel) at 50% inhibition (relative to native Phl p 5b) [3]: 1; inhibition value (inhibitor concentration at 25% inhibition) [3]: 5.2e-10 mol/L; IC50 [4]: 4.2 nM; allergenic potency (Prel) at 25% inhibition (relative to native Phl p 5b) [4]: 1; allergenic potency (Prel) at 50% inhibition (relative to native Phl p 5b) [4]: 1; inhibition value (inhibitor concentration at 25% inhibition) [4]: 3.3e-10 mol/L; IC50 [5]: 6.1 nM; allergenic potency (Prel) at 25% inhibition (relative to native Phl p 5b) [5]: 1; allergenic potency (Prel) at 50% inhibition (relative to native Phl p 5b) [5]: 1; inhibition value (inhibitor concentration at 25% inhibition) [5]: 5.1e-10 mol/L
2 | B2 | 2e-10 mol/L | 5 nM | 3e-10 mol/L | 1400 nM | 5.6e-10 mol/L | 14 nM | 8.7e-10 mol/L | 73 nM | 2.1e-10 mol/L | 4.7 nM | 0.9030 | 0.597 | 1.045 | 1.709 | 1.697 | 0.4190 | 0.093 | 0.5450 | 0.8410 | 0.4400 | Incorporation of [3H]-thymidine into TCL 1 Wöl (stimulation index class) ([6]; primary stimulator n Phl p 5): + (1-2 (+)); Incorporation of [3H]-thymidine into TCL 2 Eic (stimulation index class) ([6]; primary stimulator n Phl p 5): + (1-2 (+)); Incorporation of [3H]-thymidine into TCL 3 Fre (stimulation index class) ([6]; primary stimulator n Phl p 5): + (1-2 (+)); Incorporation of [3H]-thymidine into TCL 4 Mer (stimulation index class) ([6]; primary stimulator n Phl p 5): + (1-2 (+)); Incorporation of [3H]-thymidine into TCL 5 17.4 (stimulation index class) ([6]; primary stimulator r Phl p 5): + (1-2 (+)); Incorporation of [3H]-thymidine into TCL 6 Mah (stimulation index class) ([6]; primary stimulator r Phl p 5a, r Phl p 5b): +++ (>10 (+++)); Incorporation of [3H]-thymidine into TCL 7 19.2 (stimulation index class) ([6]; primary stimulator r Phl p 5b): +++ (>10 (+++)); Incorporation of [3H]-thymidine into TCL 8 20.1 (stimulation index class) ([6]; primary stimulator r Phl p 5b): +++ (>10 (+++)); Incorporation of [3H]-thymidine into TCC CB 2 (stimulation index class) ([7]; T cell-reactive region A): +++ (>10 (+++)); Incorporation of [3H]-thymidine into TCC CB 14 (stimulation index class) ([7]; T cell-reactive region A): +++ (>10 (+++)); Incorporation of [3H]-thymidine into TCC JR 13 (stimulation index class) ([7]; T cell-reactive region A): +++ (>10 (+++)); Incorporation of [3H]-thymidine into TCC JR 15 (stimulation index class) ([7]; T cell-reactive region A): +++ (>10 (+++)); Incorporation of [3H]-thymidine into TCC DW8 (stimulation index class) ([7]; T cell-reactive region B): + (1-2 (+)); Incorporation of [3H]-thymidine into TCC UZH2 (stimulation index class) ([7]; T cell-reactive region B): +++ (>10 (+++)); Incorporation of [3H]-thymidine, stimulation index SI, 1st exp. ([7]; T cell-reactive region C): 11.0; Incorporation of [3H]-thymidine, stimulation index SI, 2nd exp. ([7]; T cell-reactive region C): 7.0; Incorporation of [3H]-thymidine, stimulation index SI, 3rd exp. ([7]; T cell-reactive region C): 5.5; Incorporation of [3H]-thymidine, stimulation index class (last column, no head) ([7]; T cell-reactive region C): ++ (5-10 (++)); EAST inhibition curve / inhibitory effect (in words) ([8]; serum pool Bor 18/100 (20 donors), FIG. 1): binding curves which are similar to that obtained with natural Ph1 p 5b
3 | B3 | 3.3e-10 mol/L | 4.2 nM | 5.1e-10 mol/L | 6.1 nM | 5.1e-10 mol/L | 5.9 nM | 5.2e-10 mol/L | 6.8 nM | 2.2e-10 mol/L | 2.6 nM | 1.000 | 1.000 | 1.000 | 1.000 | 1.000 | 1.000 | 1.000 | 1.000 | 1.000 | 1.000 | 
